The target of the experiment is Pin1 WW-domain (UniProt Q13526). As to the kind of experiment: isothermal titration calorimetry. As to conditions: reference: unphosphorylated TFCD peptide; sites S258,S253. (In general: Isothermal titration calorimetry measures the heat released or taken up as one component is titrated into another.)

Regarding “Tissue Factor (TF) cytoplasmic domain (TFCD) (from UniProt P13726) double phosphorylated TFCD peptide”, the KD result is on record as “stronger; reference 1.53 mM”.

(Values after paper PMC6058786.)
